Laboratory results taken from the supplement of paper PMC12067230.
± gives the uncertainty stated by the source.

B1: L-20-I; numbered along this chain (parent)
chain: EASNCFAIRHFENKFAVETLICFNLFLNSQEKHY

Variants of: B1
Assay: amyloid nucleation score relative to WT ADan (yeast Sup35 reporter selection) (log enrichment difference); higher = more amyloid nucleation
Experimental: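 Deep mutational scan of the ADan peptide fused to the Sup35 nucleation domain (SupN) in S. cerevisiae [psi-pin-], covering all single amino-acid substitutions and stop truncations (truncations = sequence up to the stop). After 24 h Cu2+ induction, cells were selected on -ADE-URA plates for 7 d at 30 °C. The nucleation score is log enrichment (output/input, deep sequencing) minus that of WT ADan, as the error-weighted mean of 3 biological replicates (DiMSum).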

First: EASNCFAIRHFENKFAVETIICFNLFLNSQEKHY [L20I]
Second: EASNCFAIRHFENKFAVETHICFNLFLNSQEKHY [L20H]
The amyloid nucleation score of the first is higher: -0.22 ± 0.15 for the first, -2.5 ± 0.26 for the second.

EASNCFAIRHFENKFAVETWICFNLFLNSQEKHY [L20W] and EASNCFAIRHFENKFAVETYICFNLFLNSQEKHY [L20Y] are within error of each other in amyloid nucleation score: -2.59 ± 0.24 for the first, -2.66 ± 0.28 for the second.

Going from EASNCFAIRHFENKFAVETAICFNLFLNSQEKHY [L20A] to EASNCFAIRHFENKFAVETNICFNLFLNSQEKHY [L20N], the amyloid nucleation score rises from -1.66 ± 0.16 to -1.24 ± 0.19.

EASNCFAIRHFENKFAVETSICFNLFLNSQEKHY [L20S] and EASNCFAIRHFENKFAVETEICFNLFLNSQEKHY [L20E] are within error of each other in amyloid nucleation score: -3.53 ± 0.23 for the first, -3.91 ± 0.49 for the second.

Going from EASNCFAIRHFENKFAVETLICFLLFLNSQEKHY [N24L] to EASNCFAIRHFENKFAVETLICFGLFLNSQEKHY [N24G], the amyloid nucleation score rises from -3.39 ± 0.23 to -0.57 ± 0.096.

EASNCFAIRHFENKFAVETLICFILFLNSQEKHY [N24I] and EASNCFAIRHFENKFAVETLICFMLFLNSQEKHY [N24M] are within error of each other in amyloid nucleation score: -3.74 ± 0.28 for the first, -3.68 ± 0.37 for the second.

EASNCFAIRHFENKFAVETLICFRLFLNSQEKHY [N24R] and EASNCFAIRHFENKFAVETLICFWLFLNSQEKHY [N24W] are within error of each other in amyloid nucleation score: -4.05 ± 0.38 for the first, -4.76 ± 0.79 for the second.

First: EASNCFAIRHFENKFAVETLICFTLFLNSQEKHY [N24T]
Second: EASNCFAIRHFENKFAVETLICFFLFLNSQEKHY [N24F]
The amyloid nucleation score of the first is higher: -2.11 ± 0.21 for the first, -3.3 ± 0.3 for the second.

EASNCFAIRHFENKFAVETLICFYLFLNSQEKHY [N24Y] and EASNCFAIRHFENKFAVETLICFELFLNSQEKHY [N24E] are within error of each other in amyloid nucleation score: -3.1 ± 0.21 for the first, -3.7 ± 0.4 for the second.

Going from EASNCFAIRHFENKFAVETLICFDLFLNSQEKHY [N24D] to EASNCFAIRHFENKFAVETLICFVLFLNSQEKHY [N24V], the amyloid nucleation score rises from -3.51 ± 0.25 to -2.78 ± 0.16.

Compared with EASNCFAIRHFENKFAVETLICFPLFLNSQEKHY [N24P], EASNCFAIRHFENKFAVETLICFSLFLNSQEKHY [N24S] is lower in amyloid nucleation score: -0.19 ± 0.18 for the first, -0.773 ± 0.093 for the second.

EASNCFAIRHFENKFAVETLICFHLFLNSQEKHY [N24H] and EASNCFAIRHFENKFAVETLICFCLFLNSQEKHY [N24C] are within error of each other in amyloid nucleation score: -3.55 ± 0.44 for the first, -4.06 ± 0.36 for the second.

Compared with EASNCFAIRHFENKFAVETLICFKLFLNSQEKHY [N24K], EASNCFAIRHFENKFAVETLICFQLFLNSQEKHY [N24Q] is higher in amyloid nucleation score: -3.17 ± 0.28 for the first, -0.992 ± 0.2 for the second.

Compared with EASNCFAIRHFENKFAVETLICFALFLNSQEKHY [N24A], EASNCFAIRHFENKFAVETLPCFNLFLNSQEKHY [I21P] is lower in amyloid nucleation score: -1.52 ± 0.15 for the first, -3.66 ± 0.62 for the second.

Compared with EASNCFAIRHFENKFAVETLDCFNLFLNSQEKHY [I21D], EASNCFAIRHFENKFAVETLQCFNLFLNSQEKHY [I21Q] is higher in amyloid nucleation score: -3.79 ± 0.7 for the first, 0.332 ± 0.19 for the second.

Going from EASNCFAIRHFENKFAVETLRCFNLFLNSQEKHY [I21R] to EASNCFAIRHFENKFAVETLTCFNLFLNSQEKHY [I21T], the amyloid nucleation score rises from -1.05 ± 0.12 to 0.7 ± 0.12.

EASNCFAIRHFENKFAVETLACFNLFLNSQEKHY [I21A] and EASNCFAIRHFENKFAVETLKCFNLFLNSQEKHY [I21K] are within error of each other in amyloid nucleation score: -0.465 ± 0.13 for the first, -0.182 ± 0.17 for the second.

EASNCFAIRHFENKFAVETLFCFNLFLNSQEKHY [I21F] and EASNCFAIRHFENKFAVETLGCFNLFLNSQEKHY [I21G] are within error of each other in amyloid nucleation score: 0.0204 ± 0.11 for the first, -0.00868 ± 0.097 for the second.

EASNCFAIRHFENKFAVETLWCFNLFLNSQEKHY [I21W] and EASNCFAIRHFENKFAVETLSCFNLFLNSQEKHY [I21S] are within error of each other in amyloid nucleation score: 0.109 ± 0.13 for the first, 0.32 ± 0.097 for the second.

EASNCFAIRHFENKFAVETLCCFNLFLNSQEKHY [I21C] and EASNCFAIRHFENKFAVETLYCFNLFLNSQEKHY [I21Y] are within error of each other in amyloid nucleation score: 0.511 ± 0.13 for the first, 0.68 ± 0.17 for the second.

First: EASNCFAIRHFENKFAVETLECFNLFLNSQEKHY [I21E]
Second: EASNCFAIRHFENKFAVETLVCFNLFLNSQEKHY [I21V]
The amyloid nucleation score of the first is lower: -0.48 ± 0.17 for the first, -0.0338 ± 0.098 for the second.

Going from EASNCFAIRHFENKFAVETLHCFNLFLNSQEKHY [I21H] to EASNCFAIRHFENKFAVETLMCFNLFLNSQEKHY [I21M], the amyloid nucleation score falls from 0.679 ± 0.27 to -0.308 ± 0.15.

Compared with EASNCFAIRHFENKFAVETLLCFNLFLNSQEKHY [I21L], EASNCFAIRHFENKFAVETLNCFNLFLNSQEKHY [I21N] is higher in amyloid nucleation score: -0.0345 ± 0.097 for the first, 0.877 ± 0.15 for the second.

Going from EASNCFAIRHFENKFAVETLICFNLILNSQEKHY [F26I] to EASNCFAIRHFENKFAVETLICFNLELNSQEKHY [F26E], the amyloid nucleation score rises from -0.509 ± 0.14 to 0.392 ± 0.16.

First: EASNCFAIRHFENKFAVETLICFNLDLNSQEKHY [F26D]
Second: EASNCFAIRHFENKFAVETLICFNLHLNSQEKHY [F26H]
The amyloid nucleation score of the first is lower: -0.707 ± 0.18 for the first, 0.258 ± 0.19 for the second.

First: EASNCFAIRHFENKFAVETLICFNLALNSQEKHY [F26A]
Second: EASNCFAIRHFENKFAVETLICFNLCLNSQEKHY [F26C]
The amyloid nucleation score of the first is lower: -0.314 ± 0.14 for the first, 0.2 ± 0.14 for the second.

Compared with EASNCFAIRHFENKFAVETLICFNLGLNSQEKHY [F26G], EASNCFAIRHFENKFAVETLICFNGFLNSQEKHY [L25G] is lower in amyloid nucleation score: 0.778 ± 0.095 for the first, -1.88 ± 0.14 for the second.

Compared with EASNCFAIRHFENKFAVETLICFNQFLNSQEKHY [L25Q], EASNCFAIRHFENKFAVETLICFNRFLNSQEKHY [L25R] is lower in amyloid nucleation score: 0.382 ± 0.21 for the first, -3.04 ± 0.21 for the second.

Compared with EASNCFAIRHFENKFAVETLICFNTFLNSQEKHY [L25T], EASNCFAIRHFENKFAVETLICFNVFLNSQEKHY [L25V] is lower in amyloid nucleation score: 0.368 ± 0.14 for the first, -0.125 ± 0.1 for the second.

First: EASNCFAIRHFENKFAVETLICFNSFLNSQEKHY [L25S]
Second: EASNCFAIRHFENKFAVETLICFNPFLNSQEKHY [L25P]
The amyloid nucleation score of the first is lower: -2.33 ± 0.17 for the first, -1.7 ± 0.32 for the second.

Going from EASNCFAIRHFENKFAVETLICFNEFLNSQEKHY [L25E] to EASNCFAIRHFENKFAVETLICFNKFLNSQEKHY [L25K], the amyloid nucleation score falls from -1.98 ± 0.24 to -2.69 ± 0.35.

EASNCFAIRHFENKFAVETLICFNCFLNSQEKHY [L25C] and EASNCFAIRHFENKFAVETLICFNAFLNSQEKHY [L25A] are within error of each other in amyloid nucleation score: 0.731 ± 0.15 for the first, 0.9 ± 0.13 for the second.

EASNCFAIRHFENKFAVETLICFNFFLNSQEKHY [L25F] and EASNCFAIRHFENKFAVETLICFNMFLNSQEKHY [L25M] are within error of each other in amyloid nucleation score: 0.0915 ± 0.14 for the first, 0.178 ± 0.14 for the second.

EASNCFAIRHFENKFAVETLICFNWFLNSQEKHY [L25W] and EASNCFAIRHFENKFAVETLICFNHFLNSQEKHY [L25H] are within error of each other in amyloid nucleation score: -2.87 ± 0.22 for the first, -2.4 ± 0.3 for the second.

EASNCFAIRHFENKFAVETLICFNNFLNSQEKHY [L25N] and EASNCFAIRHFENKFAVETLICFNYFLNSQEKHY [L25Y] are within error of each other in amyloid nucleation score: 0.307 ± 0.17 for the first, 0.539 ± 0.16 for the second.

Going from EASNCFAIRHFENKFAVETLICFNDFLNSQEKHY [L25D] to EASNCFAIRHFENKFAVETLICFNIFLNSQEKHY [L25I], the amyloid nucleation score rises from -1.12 ± 0.21 to -0.254 ± 0.15.
